In patent US20240247055A1:

Biological target: low-density lipoprotein (LDL) receptor-related protein 1 (LRP1) (human) (UniProt Q07954)
Test: cell-based or functional assay

UniProt Q07954, sequence (Q07954 20-4544): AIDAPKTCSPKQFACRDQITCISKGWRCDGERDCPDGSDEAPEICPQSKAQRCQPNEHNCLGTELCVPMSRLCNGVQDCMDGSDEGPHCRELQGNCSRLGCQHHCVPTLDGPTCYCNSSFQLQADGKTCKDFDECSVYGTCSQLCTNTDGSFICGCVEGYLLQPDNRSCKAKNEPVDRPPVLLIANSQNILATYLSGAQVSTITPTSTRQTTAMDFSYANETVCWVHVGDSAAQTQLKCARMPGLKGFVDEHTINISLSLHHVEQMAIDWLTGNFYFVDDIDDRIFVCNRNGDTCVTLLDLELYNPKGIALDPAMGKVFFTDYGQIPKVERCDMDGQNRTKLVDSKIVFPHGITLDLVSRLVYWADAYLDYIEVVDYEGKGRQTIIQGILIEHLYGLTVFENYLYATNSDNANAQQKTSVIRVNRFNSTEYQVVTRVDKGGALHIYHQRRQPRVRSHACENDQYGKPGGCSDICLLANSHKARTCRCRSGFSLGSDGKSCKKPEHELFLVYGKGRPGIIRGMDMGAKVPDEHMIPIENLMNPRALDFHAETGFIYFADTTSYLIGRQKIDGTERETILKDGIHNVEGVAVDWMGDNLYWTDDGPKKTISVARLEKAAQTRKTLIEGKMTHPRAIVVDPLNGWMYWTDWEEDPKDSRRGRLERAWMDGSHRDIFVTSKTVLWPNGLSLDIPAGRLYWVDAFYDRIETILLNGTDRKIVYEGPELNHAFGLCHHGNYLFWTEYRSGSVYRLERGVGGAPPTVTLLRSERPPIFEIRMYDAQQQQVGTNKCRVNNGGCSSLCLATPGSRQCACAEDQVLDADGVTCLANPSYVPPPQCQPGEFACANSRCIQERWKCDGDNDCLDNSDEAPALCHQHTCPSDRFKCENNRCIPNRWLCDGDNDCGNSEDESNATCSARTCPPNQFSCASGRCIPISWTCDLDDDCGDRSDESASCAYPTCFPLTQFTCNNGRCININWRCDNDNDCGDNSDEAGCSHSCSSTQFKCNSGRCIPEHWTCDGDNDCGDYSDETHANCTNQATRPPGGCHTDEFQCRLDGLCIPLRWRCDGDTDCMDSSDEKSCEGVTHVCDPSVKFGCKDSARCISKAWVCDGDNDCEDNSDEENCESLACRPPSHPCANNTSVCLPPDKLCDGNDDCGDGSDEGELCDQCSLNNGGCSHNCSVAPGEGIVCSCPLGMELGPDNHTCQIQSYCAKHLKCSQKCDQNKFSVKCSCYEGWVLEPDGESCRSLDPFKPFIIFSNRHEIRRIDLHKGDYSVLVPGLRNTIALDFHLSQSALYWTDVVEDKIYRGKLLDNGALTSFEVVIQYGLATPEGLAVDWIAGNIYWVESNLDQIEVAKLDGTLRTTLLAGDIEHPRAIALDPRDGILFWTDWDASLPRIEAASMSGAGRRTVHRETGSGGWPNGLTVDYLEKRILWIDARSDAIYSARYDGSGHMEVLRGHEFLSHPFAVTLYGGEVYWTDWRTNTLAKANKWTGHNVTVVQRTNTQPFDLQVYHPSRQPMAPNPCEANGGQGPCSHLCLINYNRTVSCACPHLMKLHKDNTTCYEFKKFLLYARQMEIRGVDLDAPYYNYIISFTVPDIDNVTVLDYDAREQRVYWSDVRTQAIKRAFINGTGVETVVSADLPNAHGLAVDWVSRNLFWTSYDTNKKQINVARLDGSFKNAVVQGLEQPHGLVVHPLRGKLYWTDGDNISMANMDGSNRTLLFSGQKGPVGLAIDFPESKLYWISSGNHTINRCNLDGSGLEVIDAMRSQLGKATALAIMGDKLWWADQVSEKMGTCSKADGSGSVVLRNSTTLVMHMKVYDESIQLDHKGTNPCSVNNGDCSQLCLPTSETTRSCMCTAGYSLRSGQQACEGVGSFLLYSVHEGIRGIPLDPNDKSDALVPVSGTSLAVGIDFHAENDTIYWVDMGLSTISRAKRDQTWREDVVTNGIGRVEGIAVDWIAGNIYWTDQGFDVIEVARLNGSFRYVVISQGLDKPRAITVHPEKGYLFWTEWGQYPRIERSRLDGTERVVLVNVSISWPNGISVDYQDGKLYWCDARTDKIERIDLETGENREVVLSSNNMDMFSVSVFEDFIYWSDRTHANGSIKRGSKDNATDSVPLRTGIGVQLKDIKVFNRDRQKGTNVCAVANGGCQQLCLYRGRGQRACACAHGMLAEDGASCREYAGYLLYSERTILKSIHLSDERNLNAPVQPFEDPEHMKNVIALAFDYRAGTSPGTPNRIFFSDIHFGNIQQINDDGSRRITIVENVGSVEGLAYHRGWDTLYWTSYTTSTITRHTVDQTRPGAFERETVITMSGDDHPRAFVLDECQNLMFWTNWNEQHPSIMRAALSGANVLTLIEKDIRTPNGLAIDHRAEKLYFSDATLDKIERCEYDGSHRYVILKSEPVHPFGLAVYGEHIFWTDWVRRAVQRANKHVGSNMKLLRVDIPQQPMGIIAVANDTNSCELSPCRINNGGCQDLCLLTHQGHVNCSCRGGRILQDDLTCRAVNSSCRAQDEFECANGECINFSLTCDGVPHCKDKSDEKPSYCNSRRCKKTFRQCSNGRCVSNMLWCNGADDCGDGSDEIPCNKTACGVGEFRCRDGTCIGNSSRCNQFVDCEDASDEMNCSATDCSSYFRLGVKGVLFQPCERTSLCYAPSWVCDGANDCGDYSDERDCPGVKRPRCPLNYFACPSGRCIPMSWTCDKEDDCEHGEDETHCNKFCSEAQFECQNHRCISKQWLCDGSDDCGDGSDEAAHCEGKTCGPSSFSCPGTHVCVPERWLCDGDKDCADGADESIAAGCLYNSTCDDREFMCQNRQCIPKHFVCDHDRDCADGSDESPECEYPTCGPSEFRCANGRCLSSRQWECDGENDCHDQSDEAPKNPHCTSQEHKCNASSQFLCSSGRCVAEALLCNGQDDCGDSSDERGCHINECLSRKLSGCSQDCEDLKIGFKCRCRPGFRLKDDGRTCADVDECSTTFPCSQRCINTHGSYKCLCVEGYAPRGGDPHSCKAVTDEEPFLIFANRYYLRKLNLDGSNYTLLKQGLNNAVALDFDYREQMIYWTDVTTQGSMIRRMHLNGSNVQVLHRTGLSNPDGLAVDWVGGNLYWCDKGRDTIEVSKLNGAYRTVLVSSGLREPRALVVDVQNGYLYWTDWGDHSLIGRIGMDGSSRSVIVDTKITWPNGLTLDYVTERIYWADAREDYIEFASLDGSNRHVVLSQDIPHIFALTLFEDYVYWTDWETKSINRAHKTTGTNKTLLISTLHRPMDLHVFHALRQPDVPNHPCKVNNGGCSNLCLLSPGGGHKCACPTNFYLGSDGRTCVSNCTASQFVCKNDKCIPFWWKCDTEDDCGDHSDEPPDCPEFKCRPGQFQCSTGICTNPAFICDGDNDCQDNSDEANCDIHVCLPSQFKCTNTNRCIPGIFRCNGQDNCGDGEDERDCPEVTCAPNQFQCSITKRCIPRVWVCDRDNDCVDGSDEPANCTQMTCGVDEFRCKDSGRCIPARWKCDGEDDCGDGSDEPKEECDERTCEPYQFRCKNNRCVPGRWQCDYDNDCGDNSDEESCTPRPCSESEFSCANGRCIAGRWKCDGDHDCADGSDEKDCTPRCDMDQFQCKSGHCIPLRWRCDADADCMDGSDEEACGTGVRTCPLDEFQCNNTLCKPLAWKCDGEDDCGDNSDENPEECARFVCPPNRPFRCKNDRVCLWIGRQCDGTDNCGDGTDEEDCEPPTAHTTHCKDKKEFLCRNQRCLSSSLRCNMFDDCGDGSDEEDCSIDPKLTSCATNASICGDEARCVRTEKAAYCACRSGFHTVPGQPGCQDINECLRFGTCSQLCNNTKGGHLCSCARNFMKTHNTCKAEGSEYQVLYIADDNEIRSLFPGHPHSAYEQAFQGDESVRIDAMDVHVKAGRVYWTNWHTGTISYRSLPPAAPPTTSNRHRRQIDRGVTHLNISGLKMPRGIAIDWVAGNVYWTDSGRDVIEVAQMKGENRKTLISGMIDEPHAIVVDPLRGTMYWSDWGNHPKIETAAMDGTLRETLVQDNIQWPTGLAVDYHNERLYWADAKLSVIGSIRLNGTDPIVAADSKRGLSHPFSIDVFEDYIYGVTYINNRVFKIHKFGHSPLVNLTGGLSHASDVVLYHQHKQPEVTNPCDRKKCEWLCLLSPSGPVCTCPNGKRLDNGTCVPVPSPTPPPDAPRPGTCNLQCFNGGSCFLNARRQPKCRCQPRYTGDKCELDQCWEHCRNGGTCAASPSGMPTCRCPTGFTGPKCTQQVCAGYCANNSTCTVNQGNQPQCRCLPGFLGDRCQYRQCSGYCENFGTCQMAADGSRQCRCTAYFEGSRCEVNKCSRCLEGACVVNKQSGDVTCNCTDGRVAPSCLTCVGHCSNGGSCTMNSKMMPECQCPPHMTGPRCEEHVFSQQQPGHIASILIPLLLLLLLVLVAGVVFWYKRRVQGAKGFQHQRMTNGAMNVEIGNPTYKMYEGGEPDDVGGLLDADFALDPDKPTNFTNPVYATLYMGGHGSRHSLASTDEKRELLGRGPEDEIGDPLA

receptor-associated protein (RAP) (from UniProt P30533 35-357) (ligand)
inhibition of uptake of K18 tau in WT H4 cells (IC50): 9.6 nM
inhibition of uptake of full-length tau in WT H4 cells (IC50): 4.9 nM
